Measurements published in the DeepSol protein solubility set.

Assay: soluble on expression in E. coli; label from the status in PepcDB or PDB records

Sequence | soluble on expression in E. coli
YCTLDDLILSFGQDEIYRLIATDQEAEKALDDAQAEIDMYLSDRYALPVKSVPKSLNRIACDIAHYYLYNSVDEDSTVYLRYKHRIKQLSDVAAGKLSLGLYDKSDDATTDNQVVFIKSSKKVFAR | not soluble
MGSDKIHHHHHHMNRQVIEFSKYNPSGNMTILVHSKHDASEYASIANQLMAATHVCCEQVGFIESTQNDDGNDFHLVMSGNEFCGNATMSYIHHLQESHLLKDQQFKVKVSGCSDLVQCAIHDCQYYEVQMPQAHRVVPTTINMGNHSWKALEIIYETYVHYVIPVKQVTTEIQHLVEAFVREQQWSHKYKTVGMMLFDEQRQFLQPLIYIPEIQSLIWENSCGSGTASIGVFNNYQRNDACKDFTVHQPGGSILVTSKRCHQLGYQTSIKGQVTTVATGKAYIE | not soluble
MTVYHFVGIKGTGMSSLAQILHDMKHTVQGSDYEKRFFTQTALEKRNISILPFDKSNVKEGQVIIAGNAFPDTHEEIVAAKELNIPVHRYHHFLGDLMNQYTSVAVTGAHGKTSTTGLLAHVMQGAHPTSYLIGDGTGHGVENSKYFVFEACEYRRHFLSYNPDYAIMTNIDFDHPDYFTDINDVFSAFQEMALQVKKGIIACGDDEELQKIQAKVPVIFYGFGEDNDFQARNIQKRTDGTIFDVFVRNTYYDTFKITGYGNHSVLNALAVIALCHYENVDVEAVKHQLTTFEGVKRRFNEKPMGEQVIIDDYAHHPTEINATIEAARQKHPEREIVAVFQPHTFSRTEKFLDEFAESLSKADQVYLCDIFGSARENKGELTIEDLQKRIDGAELITDTTTDVLKKHKNGVLIFMGAGDIQKFEAAYVKEVQVAEK | not soluble
MGSDKIHHHHHHMPVAKKYFEIRWHGRAGQGAKSASQMLAEAALEAGKYVQAFPEYGAERTGAPMRAFNRIGDEYIRVRSAVENPDVVVVIDETLLSPAIVEGLSEDGILLVNTVKDFEFVRKKTGFNGKICVVDATDIALQEIKRGIPNTPMLGALVRVTGIVPLEAIEKRIEKMFGKKFPQEVIDANKRALRRGYEEVKCSE | soluble
MSLFPDKYDSYLYINQDKIREDLKRALKDALRICLFHITHKSPNIRTEKATRICYYRECGYTDEQIIDKILEEEYVGFVDNIESAIKSREARFRNPQNSAKIACFTENVQSKYMWDRYADGYKGFALEYDLRNCVFKYNKLGMNVNLFPVIYTDLRPDVTLDEGNIHTYEYFKQIGDKNWLNYLNSIISVNQLYWYKAYLYKDQKEYEHEHEWRMLYYNFENEEDYASIPDTGCLKAIYYGPDIAKKDKEKLHRIAVKKGLKEYDVNLDAESRKYDLKVTMFQEGHHHHHH | not soluble
MGSDKIHHHHHHMVELQRVTASSLQQSFAGDVYNTGVYLKRTFSDINTHLVTAIGQDSFSQAMLQRFEDEKINTDMVFQSTDKIAGLYAIQTDSKGERSFTYWRNDSAAKQIMQFIGDAAISKISQADMVFFSGISLAVINEEDRDAFWLLIKQCKQAGVSIVFDPNYRARMWHSPDQAKAQFDIAFSVADVVLPGVDDFNQLYGISSVEDIIAFCQPYDINELVIKNGENGINYVINGQQQHFSITPVTNVVDTTSAGDSFNGVYLGARLTGADISTAIKLASQAAGFVIQHKGAIAPKIEFHQFIERQKLIMQ | not soluble
MVRANKRNEALRIESALLNKIAMLGTEKTAEAVGVDKSQISRWKRDWIPKFSMLLAVLEWGVVDDDMARLARQVAAILTNKKRPAATERSEQIQMEF | soluble
MGSDKIHHHHHHMETGLLLTLLNKTTSLSVNQKTGIEVVSCTFNDLINTFQKAIPNTNIKGQLCIPEYQRPYVWKEKQINRLLDDFIEYYKNTDNDKPLFYLGSIIVHKDEGTLKIIDGQQRITTLLLINSIINKEIKSGIQYTSTTSINNIKRNFSYLKSVHAKDVFDYADTEVLNYIDFDKINVTLVVTATEDLAYTFFETQNTGGVRLSGSDIIKAHHLRAISSEKNINYQARKWEGIESEKIESIIQNLTKIRFWDNRNWRRFPFYRDEKGIKEVLIEEFTENTKHDKEDISFYYSAVKMEAGRAFQMHESNYKQLKQPLSDGNNTLDYINDYVHLHDVLFNRSKKDYRVSDAFYDFNEKLMHGNSGTLFLKELLEICIITYVSRFGFYRLFEASLWLYRSIYSLRVSSSRNVREDSIFKFVFENQFIDNIIEVYTVDELILYLKRFKYTFNTDNLGVKESKDKHIGSLNNYFNEFGKTEDFKKTPKAFDKAFLTAIVTKIKENNEQ | not soluble
SNQDEPRCLFVKDADSQVDLQITFRGFSRPDPQLAASRLLRRVLAGGGCSRLHLNLRERLGIVYSVDAQVAAYDETGCFSIELSTAPENLLTAVEEVLGETRKLAAEPVGAEELRRVRQGYFFDLAYSEDSTFEMQVRYGWGELMGMVKGIDEERAEVEAVDEGTLQAVARRLFAPAALNLVAVGPVTATAKRRIEQLLRRYAKEFPTSSQPPGP | not soluble
MGSDKIHHHHHHMKIVYCIAGTYNSGGMERVLANKANYLVSHGYEVVIITTDQREKQSFFELDQRINCCDLRINYEENNGKSFLNKLANYPFKQWKHRKRLTACLKQLKADIVVSMFCNDASFLWKIDDGSKKVLEIHFSRYKRLQYGRKGVWKIADRWRSRMDERTVRKYDRFVVLTAEDKAYWGNLSNMIVIPNALSHSTTELHLSPLTARKVIAIGRYGYQKGFDYLIEAWEIIHCAQPAWTLDIIGDGEWTDRLQRQIKRKRLNHCVFLKPPTGQIEEEYRQASLLVLSSRYEGLPMVLLEAQSFGLPIVSFACKCGPGDVITDGKNGFLVSVGNLPMLADRIMRLMEDEGLRKRMGMNAYHNSKTFSEERIMQCWIDMFDKLVSQR | not soluble
MIREFSEDDIEPLATGAWILGTGGGGNPYISTLNLRRLYAEGRRVKVMDPMALADDDMVAVVSKMGAPLVGQERLGDPAHLARAVEVMEDYLGKPFRAIMSVEIGGSNALSSFLAAAVLDRPVVNADAMGRAYPEAQMTSFAIGNLPMFPLSLVDVRDNEVIVTRAASWKWMERISRKVCTEVGSTAATCKAPRTGKEVKEWGIHYTVTKATELGRAVMEARARHDDPVQAVLDHEGGKQLFRGKVVDVARETTGGFLRGSTTIEGIDADRGSRMELAFQNEWAVAFRDGQPVAMTPDLLCLLDTVSGGAIGTESVRYGQRVTVVALPAPELLTTPAGIDAVGPRAFGYDIDFRSVFPLEHHHHHH | soluble
MGSDKIHHHHHHMAGPGCMLMFNRAAKDDATPRMRAGVAVNTGHSLAYQHVIEPSAGYQAKLEAELNPENGRRLSASLIAQILNLGSTSDPDIPAASQLAMAILKTIEAFQISREREPGPEHAPLDVLPLALRSPDADERAHEVCQRIAEHARALWQRMINERSGIPITHDTYLKILQLREPYFSFDFWILDEYQDTTPVVDELVNQQEGQKLYIGDPYQAIYSWRGAINALAGPIDRGLPVHYLTDSFRYNHQIAGMATLILRALGEPVPVRGQPRNFIHRRADDNHTIICRTNLSILVRAGELIVRGSPVFVDGGIPKSTYQRIESALALFQGRPNDVRISTLRQMGSWTAFVDYARGLGERADDMMNLIALVEQYQSQLPVLIDTLKRRLPYRNPRKPGQTTLITAHRSKGRQFAHVELDPDIGLPGDLMIKIQNQAPLQPKERESLHLLYVALTRAELSLELPKRIKENLKLLHGWFNRGTDTAETFTAKTTIPLPKAHAQTAQRARTEAFIRAHRRTD | not soluble
MNSNGPLMEHGKRRVAYYYDSNIGNYYYGQGHVMKPHRIRMTHHLVLNYGLYRNLEIFRPFPASFEDMTRFHSDEYMTFLKSANPDNLKSFNKQMLKFNVGEDCPLFDGLYEFCQLSSGGSLAAATKLNKQKVDIAINWMGGLHHAKKSEASGFCYTNDIVLGILELLKYHKRVLYVDIDVHHGDGVEEAFYTTDRVMTVSFHKYGDFFPGTGDLKDIGAGKGKLYSVNVPLRDGITDVSYQSIFKPIMTKVMERFDPCAVVLQCGADSLNGDRLGPFNLTLKGHGECARFFRSYNVPLMMVGGGGYTPRNVARCWTYETSIAVDKEVPNELPYNDYFEYFGPNYRLHIESSNAANENSSDMLAKLQTDVIANLEQLTFVPSVQMRPIPEDALSALNDDSLIADQANPDKRLPPQITDGMIQDDGDFYDGEREGDDRRNESDAKRAAQFESEGGEKRQKTE | not soluble
MKKGTVLNSEISSVISRLGHTDTLVVCDAGLPIPNSTARIDMALTQGVPSFMQVVDVVTREMQVEAAILATEIKQQNPQLHETLLTHLEQLQQHQGNTIKISYTTHEQFKKLTADSQAVIRSGECSPYANVILCAGVTF | not soluble
MIIIMAGGKSSRMGREKPVLKIAGKEMLLWVYEQAEAVGEVLVALSRHTPRTRELCLREGIEFVDTPGRGYVKDVQWLLREFGPFISLSSDIPFVKSSDIYSLLKEFDGKVSLTGVLPLEVVPKDLTPYSYMGYAIVGINGVAKEGEKFFVFSNPLLALNVNTPRELELAKRVAEIIRVRGIR | soluble
MGKDGEGDKKRETMAVMSLMKDQQNPIQQFQVKFKEIETGFKSWLSKQKLPVEAAVVTAMGGVQGAFIGGLMGTLSPEMPQAGIDPQAMASLKQTQALVGGPLVQARNFAAITGVNAGIACVMKRIRGKEDLESAVVAAFGSGVAYSLVSAGLQGQPMNAITTAAGFAVFQGVFFKLGERFSKPSVEDPYYTRGRSMLLKLGLEKYEKNFKKGLLADPTLPLLTDSALRDVSIPPGPRLLILDHIQRDPELKGKRGSRG | not soluble
MEKYAVILGKNPELSLVELKAFSRRFRLGVRILEERIYGSNKSFAIIQAKEDIEKYFRWIGGSLKLVRLIGEGVDSIRDLEYSKLFTVSVYGRRVDWKEWRRFGSMIKEVFKEKDSAKFFKPANTYAMPSELILKGFPKVKDVVLLFVDDKVLVGETVRVTDPFELKKLDVERPVVRPTISIPPRLARVMVNLSEIRRGNVLDPFCGTGTIVMELTLQGLNAYGTDIEEGRVRDAKKNIDWLRKEFRIRKYPVLKVCDVRRLRKCFPRTRFDAIITEPYMGKPLKYKPSRGEAIKIAKGLDRLYYQAFESFADVLKRGSIIVFVFPAFSLSNGEVYRRNRPWLEELGFKVLYRVSEGEEEHRIVRDIHVIKFIR | soluble
MAAAPFDPAEVFQVFGMRRVDSASFDEQVVQAPGDDLRCVFLWGQDCYNCGIFKQTALLQRQALLALELSWFEADVYADEALGRRFSLHGVPTFVLYRSGKRLGRVTGWPGLPQFSAAMQRLRDGT | not soluble
MHHHHHHMNPERSERIEIPVLPLRDVVVYPHMVIPLFVGREKSIRCLEAAMDHDKKIMLVAQKEASTDEPGVNDLFTVGTVASILQMLKLPDGTVKVLVEGLQRARISALSDNGEHFSAKAEYLE | soluble
MLIVLPPSETKAVGGKNPAIDFDSLHFPTLNPIRKEIAHDLARLDISQAQEILKLSQKLLPEAQRNIELFQSPTMPAVLRYTGVLYDALDATSLPSSTWEHLAIGSALFGVVMANDNIPHYRLSGTTKLPCADASVPTLKRRWGNAISTALSDTNEVILDLRSGTYQQLGKVKHAITVRVESEDSDGKRSVISHFNKHYKGQLARALLLHDVTPDPDHAIEDLIGMTQECGFAVEHSKPHELTVVITQ | not soluble
MPITSTTPEPGIVAVTVDYPPVNAIPSKAWFDLADAVTAAGANSDTRAVILRAEGRGFNAGVDIKEMQRTEGFTALIDANRGCFAAFRAVYECAVPVIAAVNGFCVGGGIGLVGNSDVIVASEDATFGLPEVERGALGAATHLSRLVPQHLMRRLFFTAATVDAATLQHFGSVHEVVSRDQLDEAALRVARDIAAKDTRVIRAAKEALNFIDVQRVNASYRMEQGFTFELNLAGVADEHRDAFVKKS | not soluble
